Source: patent US20100260668A1 (published 2010)

How the values were obtained:
[1] = biological target: T1, DLL4 ECD/His tag (R&D 1506-D4-050) (UniProt Q9NR61 27-529); experiment: direct bind ELISA, DLL4 on plate; DLL4 VD C-term.; HC Short, LC Long
T1 construct: extracellular domain; Bought antigen coated on the ELISA plate; not shown: His tag

[2] = biological target: recombinant human VEGF165 (human, UniProt P15692-4 27-191); experiment: cell-based or functional assay
[3] = biological target: human DLL4 extracellular domain (human, UniProt Q9NR61 27-529); experiment: cell-based or functional assay

Sequence of recombinant human VEGF165 (P15692 other isoform, or with tags, fused parts or gaps limits assumed): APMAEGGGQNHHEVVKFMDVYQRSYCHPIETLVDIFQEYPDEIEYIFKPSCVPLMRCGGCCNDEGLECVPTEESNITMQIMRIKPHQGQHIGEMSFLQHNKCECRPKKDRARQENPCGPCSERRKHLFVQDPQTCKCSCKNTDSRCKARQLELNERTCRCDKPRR

B1: DVD510 (bispecific antibody, human IgG1, kappa)
heavy: not shown
light: DIQMTQSPSSLSASVGDRVTITCRASQVIRRSLAWYQQKPGKAPKLLIYAASNLASGVPSRFSGSGSGTDFTLTISSLQPEDFATYYCQQSNTSPLTFGQGTKVEIKRTVAAPSVFIFPPDIQMTQSSSYLSVSLGGRVTITCKASDHINNWLAWYQQKPGNAPRLLISGATSLETGVPSRFSGSGSGKDYTLSITSLQTEDVATYYCQQYWSIPLTFGAGTKLELKRTVAAPSVFIFPPSDEQLKSGTASVVCLLNNFYPREAKVQWKVDNALQSGNSQESVTEQDSKDSTYSLSSTLTLSKADYEKHKVYACEVTHQGLSSPVTKSFNRGEC
notes: DVD-Ig; outer AB071 (VEGF), inner AB072 (DLL4); HC short, LC long linker; also called DVD510H; DVD510L
B1 gave an EC50 [1] of 420 pM.

B2: DVD047 (bispecific antibody, human IgG1, kappa)
heavy: not shown
light: DIQMTQSPSSLSASVGDRVTITCSASQDISNYLNWYQQKPGKAPKVLIYFTSSLHSGVPSRFSGSGSGTDFTLTISSLQPEDFATYYCQQYSTVPWTFGQGTKVEIKRTVAAPDVVMTQSPLSLPVTPGEPASISCRSSQSLLHSNGFNYVDWYLQKPGQSPHLLIYFGSYRASGVPDRFSGSGSGTDFTLKISRVEAEDVGVYYCMQALQTPPWTFGQGTKVEIRRTVAAPSVFIFPPSDEQLKSGTASVVCLLNNFYPREAKVQWKVDNALQSGNSQESVTEQDSKDSTYSLSSTLTLSKADYEKHKVYACEVTHQGLSSPVTKSFNRGEC
B2 was tested, and the “% inhibition of HUVEC proliferation at 0.67 nM” value [2] was -5%, the “% inhibition of HUVEC proliferation at 6.7 nM” value [2] was 31% and the “% inhibition of HUVEC proliferation at 67 nM” value [2] was 65%.

B3: DVD464 (bispecific antibody, human IgG1, kappa)
heavy: not shown
light: DIQMTQSPSSLSASVGDRVTITCRASQVIRRSLAWYQQKPGKAPKLLIYAASNLASGVPSRFSGSGSGTDFTLTISSLQPEDFATYYCQQSNTSPLTFGQGTKVEIKRTVAAPSVFIFPPDIVMTQSPDSLAVSLGERATISCRASESVDNYGISFMKWFQQKPGQPPKLLIYAASNQGSGVPDRFSGSGSGTDFTLTISSLQAEDVAVYYCQQSKEVPWTFGGGTKVEIKRTVAAPSVFIFPPSDEQLKSGTASVVCLLNNFYPREAKVQWKVDNALQSGNSQESVTEQDSKDSTYSLSSTLTLSKADYEKHKVYACEVTHQGLSSPVTKSFNRGEC
notes: DVD-Ig; outer AB071 (VEGF), inner AB069 (DLL4); HC short, LC long linker; also called DVD464H; DVD464L
For B3, the EC50 [1] was 800 pM.

B4: AB015 (antibody, human IgG1, kappa)
heavy: not shown
light: DIQMTQSPSSLSASVGDRVTITCRASQDVSTAVAWYQQKPGKAPKLLIYSASFLYSGVPSRFSGSGSGTDFTLTISSLQPEDFATTYYCQQSYTGTVTFGQGTKVEIKRTVAAPSVFIFPPSDEQLKSGTASVVCLLNNFYPREAKVQWKVDNALQSGNSQESVTEQDSKDSTYSLSSTLTLSKADYEKHKVYACEVTHQGLSSPVTKSFNRGEC
With B4 the “Soluble Flt1 Assay, % of Neutralization @ 9.2 nM Ab” value [3] was 75.2%, the “Soluble Flt1 Assay, % of Neutralization @ 27.7 nM Ab” value [3] was 78.7% and the “Soluble Flt1 Assay, % of Neutralization @ 83.3 nM Ab” value [3] was 86.6%.

B5: DVD486 (bispecific antibody, human IgG1, kappa)
heavy: not shown
light: DIQMTQSPSSLSASVGDRVTITCRASQVIRRSLAWYQQKPGKAPKLLIYAASNLASGVPSRFSGSGSGTDFTLTISSLQPEDFATYYCQQSNTSPLTFGQGTKVEIKRTVAAPSVFIFPPDIQMTQSPSSLSASVGDRVTITCRASQDVSTAVAWYQQKPGKAPKLLIYSASFLYSGVPSRFSGSGSGTDFTLTISSLQPEDFATTYYCQQSYTGTVTFGQGTKVEIKRTVAAPSVFIFPPSDEQLKSGTASVVCLLNNFYPREAKVQWKVDNALQSGNSQESVTEQDSKDSTYSLSSTLTLSKADYEKHKVYACEVTHQGLSSPVTKSFNRGEC
notes: DVD-Ig; outer AB071 (VEGF), inner AB015 (DLL4); HC short, LC long linker; also called DVD486H; DVD486L
Binder B5 has an EC50 [1] of 590 pM.

B6: DVD534 (bispecific antibody, human IgG1, kappa, lambda, L234A L235A)
heavy: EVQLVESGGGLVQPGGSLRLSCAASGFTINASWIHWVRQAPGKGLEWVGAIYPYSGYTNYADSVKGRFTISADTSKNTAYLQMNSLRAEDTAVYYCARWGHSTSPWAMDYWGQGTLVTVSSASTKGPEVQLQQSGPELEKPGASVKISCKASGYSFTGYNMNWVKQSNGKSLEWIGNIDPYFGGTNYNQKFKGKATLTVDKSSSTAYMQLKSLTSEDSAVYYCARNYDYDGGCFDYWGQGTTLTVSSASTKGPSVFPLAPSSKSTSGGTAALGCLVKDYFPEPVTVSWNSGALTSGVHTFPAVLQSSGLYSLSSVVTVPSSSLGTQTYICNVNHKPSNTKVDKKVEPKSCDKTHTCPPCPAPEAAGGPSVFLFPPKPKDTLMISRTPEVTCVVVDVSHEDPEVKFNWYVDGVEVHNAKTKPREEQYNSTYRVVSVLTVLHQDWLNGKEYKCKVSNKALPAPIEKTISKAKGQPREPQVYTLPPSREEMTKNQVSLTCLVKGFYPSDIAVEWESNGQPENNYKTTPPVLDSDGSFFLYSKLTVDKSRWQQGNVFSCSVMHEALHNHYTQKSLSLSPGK
light: DIQMTQSPSSLSASVGDRVTITCRASQVIRRSLAWYQQKPGKAPKLLIYAASNLASGVPSRFSGSGSGTDFTLTISSLQPEDFATYYCQQSNTSPLTFGQGTKVEIKRTVAAPSVFIFPPQAVVTQESALTTSPGETVTLTCRSSTGAVTTSNYANWVQEKPDHLFTGLIGGTNNRAPGVPARFSGSLIGDKAALTITGAQTEDEAIYFCALWYSNHWVFGGGTKLTVLGQPKAAPSVTLFPPSSEELQANKATLVCLISDFYPGAVTVAWKADSSPVKAGVETTTPSKQSNNKYAASSYLSLTPEQWKSHRSYSCQVTHEGSTVEKTVAPTECS
notes: DVD-Ig; outer AB071 (VEGF), inner AB073 (DLL4); HC short, LC long linker; also called DVD534H; DVD534L
In the case of B6, the EC50 [1] is reported as 470 pM.
